From patent EP4197559A1, “IMMUNOMODULATORY PROTEIN-SIRNA COMPLEX HAVING ANTICANCER ACTIVITY” (Korea Institute of Science and Technology, priority 2020, dated 2022) come the findings set out here.

For one data set, the target named is T1, papain enzyme (Carica papaya, UniProt P00784).
T1 sequence (P00784 134-345): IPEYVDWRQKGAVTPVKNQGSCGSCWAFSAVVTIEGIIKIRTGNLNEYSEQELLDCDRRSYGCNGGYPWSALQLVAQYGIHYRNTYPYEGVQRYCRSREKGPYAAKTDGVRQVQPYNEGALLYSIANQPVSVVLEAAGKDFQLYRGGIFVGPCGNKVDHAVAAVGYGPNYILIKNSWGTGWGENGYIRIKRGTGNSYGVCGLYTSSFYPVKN
Nature of the data set: Enzyme specificity: cleavage by papain enzyme, analysed by HPLC. Type of data set: biochemical. The method, then: After adsorbing the sample to a C18 column (Xbridge C18, Waters, MS, USA), it was analyzed by HPLC (Agilent Technologies, CA, USA) while eluting for 30 minutes with concentration gradients using 0.1% TFA/5-95% ACN solutions.

A further data set deals with HT-29 cells. Nature of the data set: Intracellular delivery (uptake) by confocal microscopy. Type of data set: cell-based, human. The method, then: First, 2×10^5 HT-29 cells, which are human-derived colon cancer cells, were seeded onto a 35-mm cover glass bottom dish. […] Then, CD47 SiRNA was stained red by using the TOTO3 stain. Next, after treating with the fusion protein-siRNA complex separated and purified in Example 2 at a concentration of 100 pmol/mL, the cells were cultured for 4 hours in a carbon dioxide incubator at 37 °C. Then, the cells were treated with a fixative and the SIRPα protein was stained green using FITC-labeled His-tag antibody. After staining the nuclei of the cells by treating with a 4',6-diamidino-2-phenylindole (DAPI) solution for 10 minutes, fluorescence was measured by confocal microscopy.
In the figure, the blue color corresponds to the nuclei of the cells, the red color to the CD47 siRNA, and the green color to the SIRPα protein.

The next data set relates to CT26.CL25 cells. Nature of the data set: Cytotoxicity by CCK-8 (cell counting kit-8). Type of data set: cell-based, mouse. The following applies: 800 nM, 72 hours. As to the method:
Then, the cells were analyzed using the CCK-8 (cell counting kit-8) kit.

For the next data set, the system named is cancer cells. Nature of the data set: Pharmacological effect on cancer cells (general statement, no method given).
In data set [1] the test system is macrophages (bone marrow-derived macrophages, BMDM). Nature of the data set: Macrophage phagocytosis of treated cancer cells (fluorescence microscopy). Format: cell-based, mouse. As to the method:
After the culturing was completed, the CT26.CL25 cells were stained with pHrodo Red (Invitrogen, CA, USA) and, after adding macrophages (bone marrow-derived macrophages, BMDM) extracted from the bone marrow of a laboratory mouse (C57BL/6, male, 6-week-old), cultured for 3 hours in RPMI 1640 medium. The macrophages were stained with Green Cell Tracker (Thermo Fisher Scientific, MS, USA) and fluorescence was measured using a fluorescence microscope (Nikon, Japan).
A control group was treated only with the SIPRα protein.

The test system of another data set is HPRT gene. In words: Silencing effect for HPRT gene expression (RT-PCR, agarose gel). The conditions noted are these: CT26.CL25 cells, 4 hours serum-free then 2 days. Format: cell-based, rat.
In the next data set the test system is CD47 gene. Nature of the data set: Silencing effect for CD47 gene expression (RT-PCR, agarose gel). Format: cell-based, mouse. The conditions noted are these: CT26.CL25 cells, 4 hours serum-free then 2 days, without CD47 antibody (-).

Some results are limits rather than exact numbers.

B1: Example 2: Immunoregulatory fusion protein (SIRPα-linker, SEQ ID NO 1) bound 1 : 1 via cysteine thiol-maleimide to CD47 siRNA (SEQ ID NO 17/18) (conjugate)
chain 1: EEELQIIQPDKSVLVAAGETATLRCTITSLFPVGPIQWFRGAGPGRVLIYNQRQGPFPRVTTVSDTTKRNNMDFSIRIGNITPADAGTYYCIKFRKGSPDDVEFKSGAGTELSVRAKPVDGGFLGGGGCG
chain 2: gggauauuaauacuacuucaguacaca
chain 3: uguacugaaguauuaauauccccg
modifications: cysteine thiol-maleimide conjugation of protein to siRNA; fusion protein; siRNA_DNA : The 26th and 27th nucleotide sequences are DNA; siRNA ansti sense
On to B1, for which the “SIRPα protein detected by HPLC” value is on record as “detected after treating with the papain enzyme” with papain enzyme (after treating with the papain enzyme, room temperature, 10 minutes) and “not detected” with papain enzyme (complex not treated with the papain enzyme (control)). For the same molecule, the absorption into cells result in the data set with HT-29 cells (confocal microscopy) was “effectively absorbed into cells”. The intracellular uptake result in the data set with HT-29 cells (treated together with the CD47 antibody) is listed as “decreased significantly”. The cell viability with CT26.CL25 cells is reported as ≥ 80%. In addition, the “superior pharmacological effect on cancer cells as compared to the fusion protein or the siRNA administered alone” value in the data set with cancer cells is 1.5-5 times. In data set [1] (CT26.CL25 cells treated at 200 pmol/mL for two days, then BMDM for 3 hours, compared with siRNA alone), the phagocytosis by macrophages result is given as “enhances phagocytosis by macrophages better than when the siRNA was used alone”. Moreover, in data set [1] (printed as 1.5-3 times or higher), the “effect of enhancing macrophage phagocytosis as compared to only the siRNA (CD47 siRNA) or the SIPRα protein” value was 1.5-3 times. In addition, the “expression level of the HPRT gene” value in the data set with HPRT gene was “little change in the expression level of the HPRT gene”. Also, in the data set with CD47 gene, the “expression of the CD47 gene” value was “decreases the expression of the CD47 gene to a level comparable to that of the lipofectamine-siRNA complex”.

Usually cell viability stands for a read-out of living cells in per cent, often relative to untreated cells. A higher cell viability goes with better survival.
